Experimental data: patent US20010055591A1 (WISYS TECHNOLOGY FOUNDATION, published 2001)

What was measured:
[1] = target: T1, thrombin (free thrombin) (human, UniProt P00734 328-622); experiment: ratio of κ2 with heparin to κ2 without heparin
Protocol: (§1) Serine Protease Inhibition Assays. The rates of inhibition of the serine proteases thrombin, factor Xa and APC in the presence and absence of heparin were measured using discontinuous assays under pseudo-first order rate conditions as described previously (Phillips et al., 1994; Rezaie et al., 1995). Protein was diluted in TBS buffer containing 0.1 mg/ml BSA, 0.1% PEG 8000, and 0.01% azide to a final reaction volume of 50 μl. […] Substrates used were Spectrozyme TH (SpTH) for thrombin and trypsin, PCA (SpPCA) for APC, and FXa (SpFXa) for Factor Xa (American Diagnostica, Greenwich, Conn.). Absorbances were determined using a SpectraMax Plus plate reader (Molecular Devices, Sunnyvale, Calif.). Absorbance is directly related to residual protease activity. In assays containing heparin, 1 mg/ml Polybrene was added to the substrate to block further heparin binding during substrate development. For heparin template curve data, varying concentrations (0-1000 μg/ml) of unfractionated heparin were added and proteins were diluted in HNPN buffer. For remaining heparin assays, the resulting optimal heparin concentration (5 μg/ml) was used. […] TM was either purified rabbit TM (RTM) or recombinant 4-6 TM (provided by Dr. Alireza Rezaie). Second-order rate constants of thrombin inhibition were determined using the following equation: […]
(§2) Inhibition in the presence of heparin. Thrombin inhibition is accelerated (300- to 1000-fold) in the presence of heparin (Olson et al., 1992). […] Changes in heparin binding domains may alter the concentration of heparin required for the fastest rate of thrombin inhibition.

[2] = target: T2, thrombin bound to 4-6 TM (recombinant EGF repeats 4-6 of thrombomodulin) (human, UniProt P00734 328-622; P07204 363-483); experiment: ratio of κ2 with 4-6 TM to κ2 on free thrombin
Protocol: as §1, with “Protein” for “Serine Protease Inhibition Assays. The rates of inhibition of the serine proteases thrombin, factor Xa and APC in the presence and absence of heparin were measured using discontinuous assays under pseudo-first order rate conditions as described previously (Phillips et al., 1994; Rezaie et al., 1995). Protein”
(§3) Inhibition in the presence of TM.

[3] = target: T3, trypsin; experiment: discontinuous trypsin inhibition assay, chromogenic substrate SpTH
T3 construct: The source of the trypsin is doubtful, so see recheck
Protocol: as §1
Trypsin inhibition assays were performed to examine the overall activity of each mutant protein.

[4] = target: T1, thrombin (free thrombin); experiment: discontinuous thrombin inhibition assay, chromogenic substrate; no TM
Protocol: as §1, §3

[5] = target: T4, Factor Xa (human, UniProt P00742 41-179; P00742 235-488, limits assumed); experiment: discontinuous Factor Xa inhibition assay, chromogenic substrate SpFXa
T4 construct: also called FXa
Protocol: as §1

[6] = target: T1, thrombin (free thrombin); experiment: discontinuous thrombin inhibition assay, chromogenic substrate; no heparin
Protocol: as §1, §2

[7] = target: T1, thrombin (free thrombin); experiment: discontinuous thrombin inhibition assay, chromogenic substrate; with 5 µg/ml heparin
Protocol: as §1, §2

[8] = target: T2, thrombin bound to 4-6 TM (recombinant …); experiment: discontinuous thrombin inhibition assay, chromogenic substrate; thrombin with 4-6 TM
Protocol: as §1, §3

[9] = target: thrombin bound to rabbit thrombomodulin (RTM) (human; rabbit, UniProt P00734 328-622; Q8HZ48 21-576); experiment: ratio of κ2 with RTM to κ2 on free thrombin
Protocol: as §1

[10] = target: T2, thrombin bound to 4-6 TM (recombinant …); experiment: ratio of κ2 with 4-6 TM to κ2 on free thrombin; remark: listed apart in the source

T4 sequence (P00742 41-179 limits assumed, form in doubt, chain 1 of 2): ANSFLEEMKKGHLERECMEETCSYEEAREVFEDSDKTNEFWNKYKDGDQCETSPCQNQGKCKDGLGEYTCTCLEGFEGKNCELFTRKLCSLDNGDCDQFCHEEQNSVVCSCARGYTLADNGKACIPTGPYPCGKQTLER
T4 sequence (P00742 235-488 limits assumed, form in doubt, chain 2 of 2): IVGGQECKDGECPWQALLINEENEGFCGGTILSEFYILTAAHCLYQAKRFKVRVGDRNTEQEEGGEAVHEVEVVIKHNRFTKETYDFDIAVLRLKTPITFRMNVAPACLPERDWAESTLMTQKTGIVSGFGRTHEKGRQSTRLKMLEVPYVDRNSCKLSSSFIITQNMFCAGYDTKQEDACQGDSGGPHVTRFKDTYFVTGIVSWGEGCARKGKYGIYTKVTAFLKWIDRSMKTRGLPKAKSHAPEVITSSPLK

Binder | Ratio (+/-) of κ2 with and without heparin [1] | Ratio (+/-) of κ2 with and without 4-6 TM [2] | second-order rate constant (κ2) of inhibition [3] | second-order rate constant (κ2) of inhibition [4] | second-order rate constant (κ2) of inhibition [5] | second-order rate constant (κ2) of inhibition [6] | second-order rate constant (κ2) of inhibition [7] | second-order rate constant (κ2) of inhibition [8] | Ratio to no TM (RTM) [9] | Ratio to no TM (4-6 TM) [10]
AT-P3R (antithrombin with the PCI reactive site loop and an arginine at P3) (other, I derived them from P1′ = serine 394 of mature antithrombin) HGSPVDICTAKPRDIPMNPMCIYRSPEKKATEDEGSEQKIPEATNRRVWELSKANSRFATTFYQHLADSKNDNDNIFLSPLSISTAFAMTKLGACNDTLQQLMEVFKFDTISEKTSDQIHFFFAKLNCRLYRKANKSSKLVSANRLFGDKSLTFNETYQDISELVYGAKLQPLDFKENAEQSRAAINKWVSNKTEGRITDVIPSEAINELTVLVLVNTIYFKGLWKSKFSPENTRKELFYKADGESCSASMMYQEGKFRYRRVAEGTQVLELPFKGDDITMVLILPKPEKSLAKVEKELTPEVLQEWLDELEEMMLVVHMPRFRIEDGFSLKEQLQDMGLVDLFSPEKSKLPGIVAEGRDDLYVSDAFHKAFLEVNEEGSEAAASTAVVIRFRSARPNRVTFKANRPFLVFIREVPLNTIIFMGRVANPCVK | 263 fold | 0.6 fold | 10000 M⁻¹ s⁻¹ | 2000 M⁻¹ s⁻¹ | 260 M⁻¹ s⁻¹ | 4800 M⁻¹ s⁻¹ | 1.3e+06 M⁻¹ s⁻¹ | 1200 M⁻¹ s⁻¹ |  | 
AT-pos (antithrombin H-helix mutant D309K, E310K, E312K, E313K) (other, Homo sapiens, UniProt P01008 33-464, looked up, mature; The residue numbers appear to count on mature antithrombin; also called H-helix mutant Poly-K) HGSPVDICTAKPRDIPMNPMCIYRSPEKKATEDEGSEQKIPEATNRRVWELSKANSRFATTFYQHLADSKNDNDNIFLSPLSISTAFAMTKLGACNDTLQQLMEVFKFDTISEKTSDQIHFFFAKLNCRLYRKANKSSKLVSANRLFGDKSLTFNETYQDISELVYGAKLQPLDFKENAEQSRAAINKWVSNKTEGRITDVIPSEAINELTVLVLVNTIYFKGLWKSKFSPENTRKELFYKADGESCSASMMYQEGKFRYRRVAEGTQVLELPFKGDDITMVLILPKPEKSLAKVEKELTPEVLQEWLKKLKKMMLVVHMPRFRIEDGFSLKEQLQDMGLVDLFSPEKSKLPGIVAEGRDDLYVSDAFHKAFLEVNEEGSEAAASTAVVIAGRSLNPNRVTFKANRPFLVFIREVPLNTIIFMGRVANPCVK | 34 fold | 3.7 fold | 9500 M⁻¹ s⁻¹ | 5500 M⁻¹ s⁻¹ | 1000 M⁻¹ s⁻¹ | 5300 M⁻¹ s⁻¹ | 180000 M⁻¹ s⁻¹ | 20000 M⁻¹ s⁻¹ | 90.7 fold | 3 fold
AT-rsl (antithrombin with the reactive site loop sequence of PCI) (other, Homo sapiens, UniProt P01008 33-464, looked up, mature; I derived them from P1′ = serine 394 of mature antithrombin; also called AT-rs1; Reactive site loop mutant) HGSPVDICTAKPRDIPMNPMCIYRSPEKKATEDEGSEQKIPEATNRRVWELSKANSRFATTFYQHLADSKNDNDNIFLSPLSISTAFAMTKLGACNDTLQQLMEVFKFDTISEKTSDQIHFFFAKLNCRLYRKANKSSKLVSANRLFGDKSLTFNETYQDISELVYGAKLQPLDFKENAEQSRAAINKWVSNKTEGRITDVIPSEAINELTVLVLVNTIYFKGLWKSKFSPENTRKELFYKADGESCSASMMYQEGKFRYRRVAEGTQVLELPFKGDDITMVLILPKPEKSLAKVEKELTPEVLQEWLDELEEMMLVVHMPRFRIEDGFSLKEQLQDMGLVDLFSPEKSKLPGIVAEGRDDLYVSDAFHKAFLEVNEEGSEAAASTAVVITFRSARPNRVTFKANRPFLVFIREVPLNTIIFMGRVANPCVK | 210 fold | 0.7 fold | 6100 M⁻¹ s⁻¹ | 3400 M⁻¹ s⁻¹ |  | 3000 M⁻¹ s⁻¹ | 630000 M⁻¹ s⁻¹ | 2500 M⁻¹ s⁻¹ |  | 
